Results on two molecules are retold here after paper PMC2212462 (The Journal of Experimental Medicine, 1998).

The target in series [1] is CD3-ε (human (endogenous in HPB-ALL)) (UniProt P07766). As to the kind of experiment: co-IP.
Series [2] deals with the molecule itself. As to the kind of experiment: non-reducing and reducing SDS-PAGE with Western blot.

Sequence of CD3-ε (human (endogenous in HPB-ALL)) (P07766 23-207): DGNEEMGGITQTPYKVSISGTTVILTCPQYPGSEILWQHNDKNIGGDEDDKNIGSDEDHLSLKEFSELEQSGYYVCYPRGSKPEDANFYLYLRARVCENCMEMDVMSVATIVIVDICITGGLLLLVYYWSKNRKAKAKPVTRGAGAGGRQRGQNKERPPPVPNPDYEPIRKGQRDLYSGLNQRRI

“T cell receptor interacting molecule (TRIM) (from UniProt Q6PIZ9 1-186) (natural protein)” gave a reduction of TRIM in the lysate after depletion of CD3 in series [1] of 67%.

B1: T cell receptor interacting molecule (TRIM) (natural protein)
chain: MSGISGCPFFLWGLLALLGLALVISLIFNISHYVEKQRQDKMYSYSSDHTRVDEYYIEDTPIYGNLDDMISEPMDENCYEQMKARPEKSVNKMQEATPSAQATNETQMCYASLDHSVKGKRRKPRKQNTHFSDKDGDEQLHAIDASVSKTTLVDSFSPESQAVEENIHDDPIRLFGLIRAKREPIN
Take B1: the “stoichiometry N” value in series [2] is 2.
